{"source": "the DeepSol protein solubility set", "data": [{"test": "soluble on expression in E. coli; label from the status in PepcDB or PDB records", "values": [{"sequence": "MGSDKIHHHHHHMVDDVFGNAIASATFRTHSDSLVVDSLATVDLTASAWPVFDIAASAINYPFLYADRDGTDLGALAVQQFDDVDQRLRTWMRGFVAGEPTDTLSLLKDISLGIASSISYQSREEEGTQAPLTTLDRGWGSCRDFAVLFAEAVRSLGFGARIVSGYLFNPNRALTGSTDSGSTHAWAEVFVPGAGWITLDPTNRSMGGANLIPVAVTRDIAHAVPVSGSFIGGSNGLPVNERGRRSQSNRPGLSGAAVERWIDVAQFSRCRAAPLVLNRPEPLTR", "soluble on expression in E. coli": "not soluble"}, {"sequence": "MGSDKIHHHHHHMVEVLERLGCETVLPEKQICCGQPTYNSGYSKDSMKTFKNEIDALLSIDADYIVGPSGSCVFMIKEYKDIFKDDPEYGPKAAEIDSKIYEFTQFIYRVLKVVDCGAELDAKVTVHRSCHMTRLIGERTAPFVLLDHVKDIERVPLKNVQLCCGFGGTFSAKRPELSVEMVDEKVKNIVDTDAEILIGTEESCLMNIVGRMNRLGYKIKAMHIAEVLNHNVDINRIKYIKDTDHVVVPANGEGVF", "soluble on expression in E. coli": "not soluble"}, {"sequence": "MGSDKIHHHHHHMVFPISLEGYHLEEVVIIGGGVAGLSCLNALLDQGISALLIEGSTIGTPKMCGEFLAPIAAQQLQLWDVDPLIPIPHAAFYAGIRQLDIHFTKPSAAISRSDVELKLAARARRLGGRIRENTYLEYTTPATERTPFYFKLSTGEIIEAKSAFFATGKLSNNKDNKKIALPYFGFKLHFSHTENDHSLKMFSLDKAYLGIVPITETISNCACLAKREAVDAATSPEEHFRHLTQSHPVLKKIFTPLDLSAIDILSGRAPAFTQKKPPNWPNSYWIGDTLASLYPAIGSGFAHSVDSAIQAVQSYLKQQPKLYRINYSKSIKTKVLLGNVFNAALLQPKVGQLALPLLKRSPKLVNLVLKKLDYV", "soluble on expression in E. coli": "not soluble"}, {"sequence": "MGSDKIHHHHHHMVGIILASHGEFAEGILQSGAMIFGEQENVKAVTLMPSEGPDDVKAKMQEAIASFDNQDEVLFLVDLWGGTPFNQANSLLEDHKDKWAIVAGMNLPMVIEAYASRFSMESAQEIATHILETAKDGVKVKPEELQPAEAPKAAATEDAQPKGSLPPGTVVGDGKIKFVLARIDSRLLHGQVATAWTKATQPNRIIVVSDAVAKDDLRKKLIEQAAPPGVKANVIPISKMIEVAKDPRFGNTKALLLFENPEDVLKVVEGGVEIPEVNVGSMAHSVGKVVVSKVLSMGQEDVDTFDELKAKGIKFDVRKVPNDSKANMDEILKKAKNELANA", "soluble on expression in E. coli": "not soluble"}, {"sequence": "MGSDKIHHHHHHMVKVEIDEGSGFCFGVVTAIHKAEEELAKGVTLYCLGDIVHNSREVERLKEMGLITINHEEFKQLHNAKVLLRAHGEPPETYIIAKENNIEIIDATCPVVLRLQKRIKQEYMQEDLDEKQIVIYGKNGHAEVLGLVGQTTGKAIVIEKLDEARRLDFSKSIRLYSQTTKSLDEFWEIVEYIKEHISPDVTFEYYDTICRQVANRMPNLRKFAASHDLIFFVSGKKSSNGKMLFEECKKVNPNSHLIDSADEIDDSLLPGVNSIGVCGATSTPKWLMEEISEAIKAQIKRQ", "soluble on expression in E. coli": "not soluble"}, {"sequence": "MGSDKIHHHHHHMVLPSMNKSVEAISNNHLQQPNKFPLINGLADVRDYYVANCLLFKLNKGSLRIENEFGEFIERSAPCLFLLEKDQTITLSMSEIEGHIDFSSLEVSYDLMQKFYKVFYSTRNYNDRELSLKTKPKYFFHADLLPGMSDTFDSILHGVACPRVCSNVSIDDHDYSYFSLMYLISAFVRKPGGFDFLERAIKITTKEKVYNIIISDLTRKWSQAEVAGKLFMSVSSLKRKLAAEEVSFSKIYLDARMNQAIKLLRMGAGNISQVATMCGYDTPSYFIAIFKRHFKITPLSFMRTMNH", "soluble on expression in E. coli": "not soluble"}, {"sequence": "MGSDKIHHHHHHMVNEELLWVLWQHLLFSVESLHTTTGEPIIIKHTGTLNVHAGPDFSLAKLCIDGIEWAGDVEIHTKASDWYKHKHQHNPAYESVILHVVYEADIDITRADGSCIPVLELKDRIHTMHLETYGYLMEEKKTVPCAHAIHEIPAIVMEQMKQRVLIERLERKTDGLFQLLTDQPNWKMIAGRLIFKSFGTGLNDYLFERMAQQMDFNKLDRLSYAPKSIEALFFGCSGMLEKDWADDFPAALKKEYTYLQRTQTVTCTIDSSEWKFLRTRPVNFPTIRLAQLAALFSNTDWYASFSSITSVKYAEDFLNVSLSDYWLNHYRFDVLSKPAPKHIGKTFANTFLLNAYIPFLVLHARYYKNETTWEQVFEMLDTIQAEDNAITRVWKELGIRMDTGFDSQSGLELYKMYCTHKKCLSCSIGFSILRNASVSAVVK", "soluble on expression in E. coli": "not soluble"}, {"sequence": "MGSDKIHHHHHHMVNGRFFTTAGESPAFRGRAWGRVVTQYFGGLDACCDGDDAFDAQLSQYEIGPMRVFTIAAPAHRIVRPVAALHDHGSDFFKLILQLSGVSEIEQRGKTFRLHSGDWSLYDPRVPYSIANLTHVEQLAIQIPRKQLGGFAVPDLHTSDVREFELKGLFSLLSSFLVSLSEQLPSLPGTTGTALSETILGLIVSTLTAQRDAQGEHVALPAVLRMRVKQYIHGHLADADLSIDRIARELRCSKRYLHRIFEEEGVTIDRYIWSSRLERCKDALDNARAAKPAISEIAFSWGFSSSAHFCRSFKQRYGMTPREFVRRRAWS", "soluble on expression in E. coli": "not soluble"}, {"sequence": "MGSDKIHHHHHHMVRHKRDIQRDTVPEWEDLRQLAHEIKRYNVTHLDELLLRFEENARRNGVIVHWAKDAKEHNEILYGILRDHGVKKFVKSKSMLTEECHLNEYLIEKGINVIETDLGERILQLMEEPPSHIVMPAIHIKREAVSDLFHDKLGTEKGNYDPTYLTRAARKSLREDFISADAAMTGGNFAVASTGEVVVCTNEGNADMGMACQKLNICSFGLEKLVPDLDAVGVFTRLLARSGTGQPSTTYTAHYRKPHEGGELHYIIVDNGRTDIIENEEHVKTLNCIRCGACMNTCPVYRRSGGYSYTYFIPGPIGINLGMLKDPRRYSDNVSACSLCLSCSNVCPVKIDLGEQIYRWRQDLDHLGRASQEKKLMSAGMKYLMDSPWRFNTALKMAPMANSLPRFLLYNGLNAWGKGRELPRFASTSFNNWWKKNIKK", "soluble on expression in E. coli": "not soluble"}, {"sequence": "MGSDKIHHHHHHMVSIRKSLLQFVFAGSYMKRWNDKLRPVELLEVDKQAHKMIVAWLLYQQNSDDLDDTSRLRLGSDIIEGGIFDYFYRLVITDIKPPVFYRIKDNAQHYAQLSAWVLDELEPLVQPLGEDFWGRMRGWVQRPEKNSRADRILDAAHLFASNWEFRLIESLNRFDDEIEDIGASFDAKLAGFDDLKGMDSLRHATGAVGRFAALCGQLRFQKRWSQTPRIPETSVLGHMFLVACYSYFFSLAVNACGARRQNNFFIGLFHDLPELLTRDIISPVKKSVEELDAVIKEYEEAELRRKVLNPLEEEGFGGIAARLSYYLGLEVGSEFTEAVVDNGNVLAVDFELLQSRYNHDRFDPRDGRMLKTCDTLAAFIEAYTAVRNGISSDQLQAALWRLRDKNRRTVIGPVHVGALFADFD", "soluble on expression in E. coli": "not soluble"}, {"sequence": "MGSDKIHHHHHHMVYTTPWNRKIEFGRTMVMGIINVTPDSFFADSRKQSVLEAVETAKKMIEEGADIIDVGGMSTRPGSDPVDEEEELNRVIPVIRAIRSITDVPISVDTYRWRVALKALEAGADIVNDISGYQFEPDIVRVVSENNVPYVLMHIKGTPKTMQENPHYEDVVKEIKEYFTEKIEYLKEKGVNQIVLDPGIGFGKRYEDNLEILRRIDEFKELKLPILIGASRKSFIGITLGNVPPEERLEGTLAVTAYCTMKGVDIIRVHDVLPNKRVIRMMEAILWQRL", "soluble on expression in E. coli": "not soluble"}, {"sequence": "MGSDKIHHHHHHMVYVNANVDTKVDNRKDNCDNTNTYSHTVDRKDNFDNTTTNTKTVNRNDNCNNQEEGDVNMYRRNDNCNNREATNSRSANYSIHNQGMINCYNGIAIDNRAFNSSGANTMAGTEFLRAFLDAPMSVMPGSRKNAIMDRQEGSTQPAIRYNNR", "soluble on expression in E. coli": "not soluble"}, {"sequence": "MGSDKIHHHHHHMWELDVSPTRFKAHFSLDPGVACLNHGMLGACPISVQQRQSTLRAQLERQPAAFVLRALPALLDTARNCLAEVIGADPQDLLLLPNVTTAMSAVLRSRIFAPGDQILTTDHAYLSCRNLLEFIARSTGAEVMVAPVKVPVQHPDAIVDAVLERVTARTRLAVLDHVTSPTAIVFPIARLVERLAALGIDTLVDGAHAPGMLPLDVIAIGAAYYAGDCHKWLCTPRGAGFLHVRRDRQDGLHPPVISRGYGDATPGRPRLHLEFDWLGTADPTALLCIPAAIDFLATLLPGGLPAVFARNHALVTQAAARLAQALPLARLAPDAMVGSMVAFQLPDAASDAPDDAAASLQRWLYDAHRIDVAVTPWPHRTNRTLRISAQVYNAAEDFMQLDAPLAQCLAPDDRQSNNQCRTTEVMR", "soluble on expression in E. coli": "not soluble"}, {"sequence": "MGSDKIHHHHHHMWFRNLLIYRLAGEVITSDELEAYLAKQTLQGCLGLEPQSRGWVPPGIAEADLVYSYGQQMLIALGTEKKLLPASVVNQLAKVRAQEMESHQGYAPGRKQMKEIKEAAYRELLSRAFAIRQRSHAWIDPVGGWFIVEGASASKADALIEAFIKSTGIGLKRIRTTMAPTSAMTAWLSGDDPPAIFSVDSDSIFRSREDKKVSVSYIRQSPDPQEITRHVRTGKEVIRLAMTWRDKISFILDENLQLKRLTLLDIDREPAETAEEQFDSNFFLMTEELRQLLPDLVEILGGMTAD", "soluble on expression in E. coli": "not soluble"}, {"sequence": "MGSDKIHHHHHHMYAQTPQDMTRALFEAQLVELQRARAIRKKYHTDVVLGLTSAIRVLLIDMPSLYDKIKLLDYLHIVVEEPRFRSSHEGVKFHAYTATLPPDRTPDRTLQRDRTSRQTAATPETPHTQTARSHKKVTRDTTPFAAYENSKYAPIFVEPHIFTVHPLLLWVQMAAYLRLEELVVLGDAMMRRSFYRVHVSPADFATLLNELPTTFPHRKKCDKAVKLLAENTDSCMETRLRFRMLRAGYGPFVINYRLPLNTADKKQAFLDIAIPNLKIAIEYSGKFHAQNWESDEARRTALSSAGWQILSVNAETLSNSGKFKDFLIQLSMTIARQQTILQRNQQM", "soluble on expression in E. coli": "not soluble"}, {"sequence": "MGSDKIHHHHHHMYLLVYGSLRYGFELNHLVAKSRFVGLGYIEGYEMYDLGNYPGVIKGDGIVWGEVYEIDENLIKLLDEVEDYKGSPDDLYVREKTRVYFDQKRKYYLDNVYFYRYNKEIVKNMEKIEDGDYSAWSGMPIIVNYFAYAENTNERILHQRGVDMILSETPAYTKGYRLIFNIPCKYGYCANLIEDESGIICGYLQKVFLHTLNSLDKAEQHLIKYIREVVKVYDRNGKEYFAYAYVSSYKENRKKPSEEYVKIIREGLMRGWGNECVSTGLYDEPGIS", "soluble on expression in E. coli": "not soluble"}, {"sequence": "MGSDKIHHHHHHMYTDADRSREVVPEKDGHDKKWRDEFGRDYGRIIHSASFRRQQGKTQVFPSRESDFFRNRLTHSLEVAQIAQGIAERINYDYDKDLGGKIDPRLCATAGLVHDIGHPPFGHNGESALDKAMQRYGGFEGNAQTLRILTRLEKKLRYAEPLAGDDRAGLNLCHRTIAATLKYDNEIPAIRKAADGFVKGYYGSEKIIVDRVKASVLNGYVLGAEEKFCTIECSIMDLADDIAYSVYDLEDCFKVGFLSPAEMLASDDALLSAVAKRASKPMKRTVTINEIQAVFMEIFSEIIEQPAEDADSPLDGIVIEDDIAQQAKRDESLLTFAEAYRTSKVMSEDGYKRTEFSSELVHQFISGVELKAHKECPSLSQIYLPEKLMLRKEVLKQYTFVAAIYAPRVKLGEYRGYDLVTDIFKALMGDRGDLLMPADVRGRIRKAPNVSVKAREVCDFVAGMTDRYAMEFWARLNSDAAESMFKPI", "soluble on expression in E. coli": "not soluble"}, {"sequence": "MGSDKIHHHHHHMYTMFYTSKTALSANQSKLDIISNNIANSDSTGYKKINMEYSDLVDEVLNRPSYPTNGNDISTGTGAKATAPMRNYEQGALAPTDSKSNLAIDGEGFFRVIRKDGTYAYTRNGGFNVDALGKIVDDNGNILDVQFDAGYNYNNTNIDSTNLTVSRNGELFVDNKKIGKINLYQPIGTQNFISEGDSLFVATDAAQIKQVEKVDIVQGYRERSNVSLQEEFVDLIATQRAFQMNSKGIKTADEMWQIANNLRAK", "soluble on expression in E. coli": "not soluble"}]}]}
